# B1: pegylated interferon lambda-1a (protein)
# chain: MKPTTTGKGCHIGRFKSLSPQELASFKKARDALEESLKLKNWSCSSPVFPGNWDLRLLQVRERPVALEAELALTLKVLEAAAGPALEDVLDQPLHTLHHILSQLQACIQPQPTAGPRPRGRLHHWLHRLQEAPKKESAGCLEASVTFNLFRLLTRDLKYVADGNLSLRTSTHPEST
# modifications: PEG
# notes: 180 mcg subcutaneous injection
# Assays:
# [1] = Third trial (TOGETHER): treatment emergent adverse events and drug adherence; type: in vivo, human
# Description: An adverse event (AE) is any adverse change from the participant's baseline (pre-treatment) condition, including intercurrent illness which occurs during the course of the trial, after the consent form has been signed, whether the event is considered related to treatment or not.
# A serious adverse event (SAE) is any adverse event that at any dose: • results in death (grade 5 event) • is life-threatening (grade 4 event) • requires inpatient hospitalization or prolongation of existing hospitalization • results in persistent or significant disability or incapacity • is a congenital anomaly/birth defect
# Study personnel collected outcome data via in-person, and via telephone or WhatsApp using video-teleconferencing on Days 1, 2, 3, 4, 5, 7, 10, 14, and 28. Adverse events were recorded at the time they occurred. All serious and non-serious adverse events were reported to study personnel as per local regulatory requirements. Reportable adverse events included serious adverse events, adverse events resulting in study medication discontinuation, and adverse events assessed as possibly related to study medication.
# [2] = test system: SARS-CoV-2 MA; set-up: species or system BALB/c mice; conditions: mouse, in vivo, sc
# [3] = test system: SARS-CoV-2; assay: Second trial: outpatients with mild to moderate COVID-19, SARS-CoV-2 RNA viral load and clearance; type: in vivo, human
# Experimental: Using the methods and criteria described above in Examples 1-3, a second trial was performed to assess interferon lambda for immediate antiviral therapy at diagnosis in COVID-19 infections. The second trial included a randomized trial of pegylated interferon lambda in outpatients with mild to moderate COVID-19 infection.
# Thirty participants were randomly assigned to receive 180 mcg pegylated interferon lambda-1a, and 30 participants were assigned to receive a saline placebo. Patients were followed for 14 days. Nasopharyngeal samples were collected. The baseline SARS-CoV-2 viral load in the interferon lambda group was 6.2 log10 copies/mL and was 4.9 log10 copies/mL in the placebo group. In the interferon lambda group (19 subjects) and placebo (16 subjects) groups, there were a total of 35 subjects with viral loads great or equal to 6 log10 copies/mL.
# [4] = Treated within 5 days of symptom onset, n=800 vs placebo 879
# [5] = Unvaccinated population, n=143 vs placebo 176
# [6] = baseline RNA above 10^6 copies/mL
# [7] = baseline viral load below 10^6 copies/mL
molecule,measurement,setting,value
B1,"TEAE, Grade 5, % of patients",[1]; [4],(0.4%)
same,"TEAE, Grade 5, RR (95% CrI) vs placebo",[1]; [4],"0.86 (0.20, 3.40)"
same,"TEAE, Grade 1, % of patients",[1]; [5],5.6%
same,"TEAE, Grade 1, RR (95% CrI) vs placebo",[1]; [5],"1.23 (0.49, 3.08)"
same,"TEAE, Grade 2, % of patients",[1]; [5],11.9%
same,"TEAE, Grade 2, RR (95% CrI) vs placebo",[1]; [5],"1.16 (0.63, 2.16)"
same,"TEAE, Grade 3, % of patients",[1]; [5],3.5%
same,"TEAE, Grade 3, RR (95% CrI) vs placebo",[1]; [5],"0.60 (0.21, 1.53)"
same,"TEAE, Grade 4, % of patients",[1]; [5],1.4%
same,"TEAE, Grade 4, RR (95% CrI) vs placebo",[1]; [5],"0.58 (0.12, 2.22)"
same,"TEAE, Grade 5, % of patients",[1]; [5],0 (0%)
same,"TEAE, Grade 5, RR (95% CrI) vs placebo",[1]; [5],"1.21 (0.03, 47.34)"
same,treatment emergent adverse events compared to placebo,"[1]; final analysis, listed as peginterferon lambda",no important differences
same,"Premature discontinuation, Request by participant to terminate study treatment, %",[1]; n=916,(0.0%)
same,"Premature discontinuation, reason Hospitalization, %",[1]; n=916,(0.0%)
same,"Premature discontinuation, reason Non-compliance with Study Therapy, %",[1]; n=916,(0.0%)
same,"Premature discontinuation, reason Other, %",[1]; n=916,(0.0%)
same,"Prematurely discontinued study drug, %","[1]; n=916, within 28 days of randomization",(0.0%)
same,incidence of any adverse event compared with placebo,[1]; preliminary ITT,indistinguishable
same,SARS-CoV-2 MA replication in the lung (lung viral titer),[2],significantly diminished
same,viral titer in the nasal turbinates,[2],did not alter
same,OR of response (clearance) at Day 7 vs Placebo,"[3]; Adjusted for Asymptomatic at baseline, all patients",2.91
same,OR of response (clearance) at Day 7 vs Placebo,"[3]; Adjusted for Asymptomatic at baseline, ≥10E6 copies/mL",0.00
same,OR of response (clearance) at Day 7 vs Placebo,"[3]; Adjusted for BMI, all patients",2.37
same,OR of response (clearance) at Day 7 vs Placebo,"[3]; Adjusted for BMI, ≥10E6 copies/mL",6.73
same,OR of response (clearance) at Day 7 vs Placebo,"[3]; Adjusted for IFNL4 genotype, all patients",2.24
same,OR of response (clearance) at Day 7 vs Placebo,"[3]; Adjusted for IFNL4 genotype, ≥10E6 copies/mL",7.66
same,OR of response (clearance) at Day 7 vs Placebo,"[3]; Adjusted for age, all patients",2.48
same,OR of response (clearance) at Day 7 vs Placebo,"[3]; Adjusted for age, ≥10E6 copies/mL",9.42
same,OR of response (clearance) at Day 7 vs Placebo,"[3]; Adjusted for comorbidity, all patients",2.35
same,OR of response (clearance) at Day 7 vs Placebo,"[3]; Adjusted for comorbidity, ≥10E6 copies/mL",10.46
same,OR of response (clearance) at Day 7 vs Placebo,"[3]; Adjusted for sex, all patients",2.36
same,OR of response (clearance) at Day 7 vs Placebo,"[3]; Adjusted for sex, ≥10E6 copies/mL",6.44
same,OR of response (clearance) at Day 7 vs Placebo,"[3]; Adjusted for viral load at baseline, all patients",4.12
same,OR of response (clearance) at Day 7 vs Placebo,"[3]; Adjusted for viral load at baseline, ≥10E6 copies/mL",8.16
same,OR of response (clearance) at Day 7 vs Placebo,"[3]; Adjusted for viral load with interaction, baseline 10E3 copies/mL",1.45
same,OR of response (clearance) at Day 7 vs Placebo,"[3]; Adjusted for viral load with interaction, baseline 10E4 copies/mL",1.88
same,OR of response (clearance) at Day 7 vs Placebo,"[3]; Adjusted for viral load with interaction, baseline 10E5 copies/mL",2.43
same,OR of response (clearance) at Day 7 vs Placebo,"[3]; Adjusted for viral load with interaction, baseline 10E6 copies/mL",3.14
same,OR of response (clearance) at Day 7 vs Placebo,"[3]; Adjusted for viral load with interaction, baseline 10E7 copies/mL",4.05
same,OR of response (clearance) at Day 7 vs Placebo,"[3]; Adjusted for viral load with interaction, baseline 10E8 copies/mL",5.23
same,OR of response (clearance) at Day 7 vs Placebo,"[3]; Adjusted for viral load with interaction, baseline 10E9 copies/mL",6.76
same,OR of response (clearance) at Day 7 vs Placebo,"[3]; Crude, all patients",2.32
same,OR of response (clearance) at Day 7 vs Placebo,"[3]; Crude, ≥10E6 copies/mL at baseline",6.25
same,viral load decline greater than in placebo group,"[3]; Day 3, all patients",0.82 log copies/mL
same,viral load decline greater than in placebo group,"[3]; Day 5, all patients",1.67 log copies/mL
same,viral load decline greater than in placebo group,"[3]; Day 7, all patients",2.42 log copies/mL
same,viral load decline greater than in placebo group,"[3]; Day 14, all patients",1.77 log copies/mL
same,median time to viral clearance,[3]; [6],7 (95% CI 6.2-7.8) days
same,"undetectable at Day 7, participants",[3]; [6],15 of 19
same,"undetectable at Day 7, proportion",[3]; [6],79%
same,OR undetectable at Day 7 vs placebo,[3]; [7],0.35
same,"undetectable at Day 7, participants",[3]; [7],9 of 11
same,"undetectable at Day 7, proportion",[3]; [7],82%
same,"negative for SARS-CoV-2 RNA, participants","[3]; by Day 7, all patients",24/30
same,"negative for SARS-CoV-2 RNA, proportion","[3]; by Day 7, all patients",80%
same,viral level decrease in absolute terms,"[3]; by Day 7, all patients",5.5 log copies/mL
same,viral load decline,"[3]; by Day 7, baseline viral load at or above 10E6 copies/mL",7.17 log copies/mL
same,"detectable virus at Day 7, participants",[3]; high baseline viral load,4 of 19
same,"detectable virus at Day 7, proportion",[3]; high baseline viral load,21%
same,OR of response at Day 7 for viral load at baseline within the IFN Lambda group,"[3]; interaction model, all patients",0.82
same,shedding of infectious virus at day 7,[3]; interferon lambda group,all subjects were below the level of shedding infectious virus at day 7
